Assay results from the supplement of paper PMC9170038.

Assays:
MS2 coat protein [1] = test: apparent KD of MS2 coat protein, switch ON state; designed switch direction (-1 OFF switch, 1 ON switch): 1; higher = weaker reporter binding; details: FMN input: 0 or 200 uM; Eterna round: R93 (includes R88 designs)
Outline: (§1)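 Apparent KD was obtained for each design as the median of normalised binding-curve fits over its clusters. RNA switches transcribed on-chip from Illumina sequencing clusters were titrated with SNAP-549-labelled MS2 coat protein (twofold steps, 0.7 or 1.5 nM to 3 µM) in 100 mM Tris-HCl pH 7.5, 80 mM KCl, 4 mM MgCl2, without or with constant ligand.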

MS2 coat protein [2] = test: apparent KD of MS2 coat protein, switch OFF state (with FMN for OFF switches, without FMN for ON switches); designed switch direction (-1 OFF switch, 1 ON switch): 1; higher = weaker reporter binding; details: FMN input: 0 or 200 uM; Eterna round: R93 (includes R88 designs)
Outline: as §1

Sequence | apparent KD of MS2 coat protein (MS2 coat protein [1]) | apparent KD of MS2 coat protein (MS2 coat protein [2])
AAAUAUAAAAACUAGGAUAUACUAAAAUAAACAUGAGGAUCACCCAUGUAAAAAAAAAAACUCAUGUAGAAGGAGUAAAUAUAAA [ss2 9th] | 22.6 nM | 13.8 nM
AAAUUACAUGAGGAUCACCCAUGUAGCGACGUUACAGGAUAUGUGGGUGAAAAUAGCAUGACAGAAGGGUACCGUA [SameState1 Malc#39] | 77 nM | 60.8 nM
AAAUUACAUGAGGAUCACCCAUGUUUAAAAAAUAUAGGAUAUGUAAAAAAAAAAAAAAAAACAGAAGGGUAAAAAA [I 'NO' this state well] | 25.1 nM | 25.4 nM
AACAAUCUAUCUGAGGAUAUAUGUCGAAAGACAUGAGGAUCACCCAUGUGAAAACAUGAAAAAUCAUAGAAGGCAGAUAGAUUGA [SS2: 1138] | 49 nM | 393 nM
AACAGACAUGAGGAUCACCCAUGUAGAAUUAUGGGAGGAUAUACAAAGACGAGAGUCAGAGUAGAAGGCCUAGGAU [salish99-ss1-166] | 22.8 nM | 63.4 nM
AACAGACAUGAGGAUCACCCAUGUAGGAUUAUGGGAGGAUAUACAAAGACGAGAGUCAGAGUAGAAGGCCUAGGAA [salish99-ss1-147] | 16.7 nM | 57.9 nM
AACAUACAUGAGGAUCACCCAUGUUCCGGCAGGUCAGGAUAUAUAUCGAAAGAGUUAUAAAUAGAAGGGACAUAAA [JR_SS001_Sub009] | 49.6 nM | 60.7 nM
AACCAACAUGAGGAUCACCCAUGUAGAAAUAUGGGAGGAUAUACAAACACGAAAGUGAAAGUAGAAGGCCUAAAAG [77%, Mat - Mod of Eli, 6] | 22.5 nM | 125 nM
AACUACAUUAUGAAGGAUAUCCACAUCUAGACAUGAGGAUCACCCAUGUAUACUUAGAUCAUACAGGAGAAGGUCAAGGGUGAUU [JR_SS002_Sub1208] | 172 nM | 131 nM
AAGAAACAUGAGGAUCACCCAUGUAAAAAUAUGGGAGGAUAUACAAGGACGUAAGUCAAGGUAGAAGGCCUAAGAA [Mat - Same State 1 - Meechl mod - D136] | 20.2 nM | 82.5 nM
AAGAAACAUGAGGAUCACCCAUGUAAAUUCGAGAGAGGAUAUCGUACAUGGAAGAUUCAACGAGAAGGCUCUAGAA [Same State 1.1 (Pariah 3, G boost at 31)] | 21 nM | 79.6 nM
AAGAAACAUGAGGAUCACCCAUGUAAGAUAAACACAGGAUAUGCAAAAGAAACAAAGAAAGCAGAAGGGUGAAGAA [Mat - Same State 1 - Tesla mod - 49] | 17.8 nM | 48.4 nM
AAGAAACAUGAGGAUCACCCAUGUAAGAUAAACACAGGAUAUGCGAAAAGAAACAAAGAAGCAGAAGGGUGAAGAA [Ex5 sub 1] | 17 nM | 35.7 nM
AAGAAACAUGAGGAUCACCCAUGUAAGAUAAACACAGGAUAUGCGAAAAGAAAGAAAGAAGCAGAAGGGUGAAGAA [Mat - Same State 1 - Tesla mod - 39] | 17.4 nM | 41.7 nM
AAGAAACAUGAGGAUCACCCAUGUAAGAUAAACACAGGAUAUGCGAAAAUAAACAAAGAAGCAGAAGGGUGAAGAA [Mat - Same State 1 - Tesla mod - 62] | 13.5 nM | 41.9 nM
AAGAAACAUGAGGAUCACCCAUGUAGAAAUAUGGGAGGAUAUACAAGGACGAGAGUCAAGGUAGAAGGCCUAAGAA [Mat - Same State 1 - Meechl mod - D134] | 17.6 nM | 111 nM
AAGAAACAUGAGGAUCACCCAUGUGAGAACAUGGGAGGAUAUACGAAGACGAAAGUCGAAGUAGAAGGCCUAAAAG [Garnet 80] | 243 nM | 24.9 nM
AAGAAACAUGAGGAUCACCCAUGUGAGAUAAACACAGGAUAUGCGAAAAUAAACAAAUAAGCAGAAGGGUGAAGAA [Mat - Same State 1 - Tesla mod - 68] | 32.9 nM | 74.8 nM
AAGAAACAUGAGGAUCACCCAUGUGAUAAUAUGGGAGGAUAUACAAGGACGUAAGUCAAGGUAGAAGGCCUAAGAA [Mat - Same State 1 - Meechl mod - D140] | 30.5 nM | 61.6 nM
AAGAAACAUGAGGAUCACCCAUGUGAUAAUAUGGGAGGAUAUACGAAGUCGAAAGUCGAAGUAGAAGGCCUAAGAA [Garnet 41] | 49 nM | 186 nM
AAGAAACAUGAGGAUCACCCAUGUGUAAAUAUGGGAGGAUAUACAAGGACGUAAGUCAAGGUAGAAGGCCUAAGAA [Mat - Same State 1 - Meechl mod - D137] | 29.4 nM | 319 nM
AAGAAAGAAACGCAGGAUAUGCAAAACAAAACAUGAGGAUCACCCAUGUCAAACAAACAAACAAAGCAGAAGGGCGAAAGAAAGAA [Same State 2 AA] | 18.1 nM | 21.3 nM

Sequence | apparent KD of MS2 coat protein (MS2 coat protein [1]) | apparent KD of MS2 coat protein (MS2 coat protein [2])
AAGAAAGUUUACGAGGAUAUGUUCCGCAGAACAUGAGGAUCACCCAUGUGAACACGAAGUGCGACGCAGAAGGCGUGAGCAAUGA [Isenmaqu] | 34.5 nM | 130 nM
AAGAUACAUGAGGAUCACCCAUGUUAAGAGAGAUGAGGAUAUCCGAAUUAAUUAAAUUAAGGAGAAGGCAUGAAAA [LROPPY Same State 1 - v02_deltaG=2.1] | 18.2 nM | 26.9 nM
AAGCAACAUGAGGAUCACCCAUGUAGCAGGGUCAGAGGAUAUUUGAGCUUGGUAAGGGUUAAAGAAGGUUGAUAAA [Alabeti] | 138 nM | 55.5 nM
AAUAAACAUGAGGAUCACCCAUGUCGGUAAAGUCAAGGAUAUGGGACUGGGAUUAAAGUGCCAGAAGGUGAAAAUA [Raxela] | 122 nM | 351 nM
AAUAAGACUAGCAAGGAUAUCGAAAACGAGACAUGAGGAUCACCCAUGUAACAAGUAUAAGUAUACGAGAAGGUGCAGGGUGUAA [JR_SS002_Sub302] | 174 nM | 36.9 nM
AAUAAGACUAGCAAGGAUAUCGAAAACGAGACAUGAGGAUCACCCAUGUAACGAGUAUAAGUAUACGAGAAGGUGCAGGGUGAAA [JR_SS002_Sub303] | 75 nM | 86.7 nM
AAUACACAUGGUCAGGAUAUCGCAGCUAGGACAUGAGGAUCACCCAUGUAGCAUGUAACUGAAACCGAGAAGGGACAGGGUGAUC [JR_SS002_Sub412] | 61.4 nM | 85.1 nM
AAUACACAUGGUCAGGAUAUCGCAGCUAGGACAUGAGGAUCACCCAUGUCGUACGUAAAAGUAAAUGAGAAGGGACAGGGUGACC [JR_SS002_Sub407] | 37.8 nM | 30 nM
AAUAUACAUGAGGAUCACCCAUGUGAAAAUAUGGAAGGAUAUCGUAAAAAAAAAAAAAAACGAGAAGGUCCAAAAA [SS! 1 MT 14] | 18.7 nM | 30.2 nM
AAUAUAUUAAGUGAGGAUAUCAAGAAAAAAACAUGAGGAUCACCCAUGUGGGAAACACGGUAGGGUGAGAAGGUACUUAAUAUAU [Samwise Clockwise 20 - Jieux - Same State 2] | 504 nM | 27.6 nM
AAUAUAUUAAGUGAGGAUAUCGAGGAAAAAACAUGAGGAUCACCCAUGUGGGAAACCUGGUCGGGUGAGAAGGCACUUAAUAUAU [Samwise Clockwise 26 - Jieux - Same State 2] | 19.8 nM | 76.7 nM
ACAAAACAUGAGGAUCACCCAUGUGAGAACAUGAAAGGAUAUACUAGGACGAGAGUCAAUGUAGAAGGUUCUAGAA [SS - 1] | 34.6 nM | 39 nM
ACAAGGCUACACUAGGAUAUGGGUGUCUAAACAUGAGGAUCACCCAUGUGAUGGCAAAACAAAGCUCAGAAGGAGUCGUAGCCCA [Anvemais] | 14.7 nM | 27.4 nM
ACCAGGAAGAGAGAGGAUAUCCAAAGGAAAACAUGAGGAUCACCCAUGUAAAAGGUAGGAAAUUGGGAGAAGGCUCAAGAGAGAG [salish99-ss2-101] | 26.7 nM | 30.1 nM
ACGGCACAUGAGGAUCACCCAUGUGCCGAGAGGCGAGGAUAUCGAAAAAAAAAAAAAAAACGAGAAGGCGCGAGAA [SameState1NO] | 12.6 nM | 11.1 nM
ACUACACAUGAGGAUCACCCAUGUCAGGUGGGACUAGGAUAUUAUAAACCAGAGUAAAAAUAAGAAGGAGUAGAAA [JR_SS001_Sub308] | 51.8 nM | 46.6 nM
ACUUCACAUGAGGAUCACCCAUGUCAGGCCGGACUAGGAUAUUAUAAACCAGAGUAAAAAUAAGAAGGAGUAGGAA [JR_SS001_Sub311] | 67.9 nM | 75.2 nM
AGAAAACAUGAGGAUCACCCAUGUCAAAUAAGUCAAGGAUAUGGGACUCCGCGAGAGUCGCCAGAAGGUGAGAAAA [Aatrara] | 17.5 nM | 49.5 nM
AGAAAACAUGAGGAUCACCCAUGUGAUAAUAUGGGAGGAUAUACGAAGACGAAAGUCGACGUAGAAGGCCUAAAGA [Garnet 48] | 35.3 nM | 70.8 nM
AGAAAGAAUAGAGAGGAUAUCUAUAAGAAAACAUGAGGAUCACCCAUGUAAAAGAAAAGAAAAUGGGAGAAGGCUCAUAAGAAAG [JL Skelter Mod 6 In the Red] | 186 nM | 71.6 nM
AGAAAUAAAAGACAGGAUAUCCAAAAGAAAACAUGAGGAUCACCCAUGUAAAAGAAAAUAAAAUGGGAGAAGGGUCAAAAUAAAG [Topaz 2] | 11 nM | 36.6 nM
